Data published in USRE38424E1 (The United States of America as represented by the …, priority 1994, dated 2004).
Read-outs that look alike come from different tables or passages of the source.

Settings: for Duration of Neutropenia in Neutropenic Cycles, Median / Duration of Neutropenia in Neutropenic Cycles, Range / Nadirs in Neutropenic Cycles, Median / Nadirs in Neutropenic Cycles, Range / Duration of Neutropenia in Neutropenic Cycles, Mean / Nadirs in Neutropenic Cycles, Mean / Day of Onset of Neutropenia in Neutropenic Cycles, Median / Day of Onset of Neutropenia in Neutropenic Cycles, Range / Day of Onset of Neutropenia in Neutropenic Cycles, Mean / Nadir (all cycles), Median / Nadir (all cycles), Range / Nadir (all cycles), Mean: taxol 250 mg/m^2/21 days
Source text: A total of 47 patients were included in this study. All patients had recurrent advanced stage epithelial ovarian cancer confirmed on histologic review at the Laboratory of Pathology, National Cancer Institute (NCI). Borderline, mixed, and germ cell histologies were excluded.
Pretreatment evaluation consisted of a physical examination, laboratory studies with CA-125, radiographic evaluation by CT scan, baseline electromyogram with nerve conduction velocity studies (EMG/NCV), creatinine clearance, chest radiograph, and EKG. On-study staging was completed within two weeks of starting therapy. Physical examination and laboratory evaluations were repeated with every cycle, except for CBC which was evaluated twice weekly. Patients underwent restaging every two cycles (i.e., every 6 weeks), which included the repetition of any radiographic studies that were abnormal upon entry. EMG/NCV studies were repeated as indicated to determine the presence of any progressive neurologic toxicity.
The G-CSF was supplied to the Division of Cancer Treatment by Amgen, Inc. (Thousand Oaks, Calif.). This G-CSF administration continued until the absolute granulocyte count of the patient was greater than 1500/μl for two consecutive days after the nadir (i.e., the total count for the two days was at least 3000/μl ) or until the total white blood cell count was greater than 30,000/μl. Patients with responding disease or stable disease continued on the study and were reevaluated at two cycle intervals.
Patients manifesting second or third degree heart block had remaining cycles given in the intensive care unit with appropriate interventions. Antiemetics were given as needed.
More specifically, this was undertaken by increasing the dose of G-CSF administered on the next treatment cycle.
The particulars pertaining to the flexible G-CSF dosage regimen are as follows. […] The dose of G-CSF was reduced by 5 μg/kg/day if severe bone pain occurred at these higher G-CSF dosage levels, i.e., at levels greater than or equal to 10 μg/kg/day.

B1: G-CSF: granulocyte colony-stimulating factor, available from Amgen, Inc. (protein, UniProt P09919 31-207, looked up)
Granulocyte …: TPLGPASSLPQSFLLKCLEQVRKIQGDGAALQEKLVSECATYKLCHPEELVLLGHSLGIPWAPLSSCPSQALQLAGCLSQLHSGLFLYQGLLQALEGISPELGPTLDTLQLDVADFATTIWQQMEELGMAPALQPTQGAMPAFASAFQRRAGGVLVASHLQSFLEVSYRVLRHLAQP
Question: With B1 as the molecule, how does the “Duration of Neutropenia in Neutropenic Cycles, Median” value (10 μg/kg G-CSF, 49 cycles) read?
Answer: 1 days

Question: What about the “Duration of Neutropenia in Neutropenic Cycles, Range” value (10 μg/kg G-CSF, 49 cycles) of the same molecule?
Answer: 1 to 4 days

Question: And the “Nadirs in Neutropenic Cycles, Median” value (10 μg/kg G-CSF, 49 cycles)?
Answer: 162

Question: And the “Nadirs in Neutropenic Cycles, Range” value (10 μg/kg G-CSF, 49 cycles)?
Answer: 0-494

Question: What about the “Duration of Neutropenia in Neutropenic Cycles, Mean” value (10 μg/kg G-CSF, 49 cycles, ± 0.7 on wrapped line) of the same molecule?
Answer: 1 days

Question: What about the “Nadirs in Neutropenic Cycles, Mean” value (10 μg/kg G-CSF, 49 cycles, ± 158 on wrapped line) of the same molecule?
Answer: 178

Question: And the “Day of Onset of Neutropenia in Neutropenic Cycles, Median” value (10 μg/kg G-CSF, 54 cycles)?
Answer: 7 days

Question: What about the “Day of Onset of Neutropenia in Neutropenic Cycles, Range” value (10 μg/kg G-CSF, 54 cycles) of the same molecule?
Answer: 5 to 9 days

Question: And the “Day of Onset of Neutropenia in Neutropenic Cycles, Mean” value (10 μg/kg G-CSF, 54 cycles, ± 0.8 on wrapped line)?
Answer: 7 days

Question: And the “Nadir (all cycles), Median” value (10 μg/kg G-CSF, 130 cycles)?
Answer: 865

Question: What about the “Nadir (all cycles), Range” value (10 μg/kg G-CSF, 130 cycles) of the same molecule?
Answer: 0-6232

Question: And the “Nadir (all cycles), Mean” value (10 μg/kg G-CSF, 130 cycles, ± 1636 on wrapped line)?
Answer: 1341

Question: And the “Day of Onset of Neutropenia in Neutropenic Cycles, Median” value (20 μg/kg G-CSF, 20 cycles)?
Answer: 7 days

Question: What about the “Day of Onset of Neutropenia in Neutropenic Cycles, Range” value (20 μg/kg G-CSF, 20 cycles) of the same molecule?
Answer: 6 to 11 days

Question: What about the “Duration of Neutropenia in Neutropenic Cycles, Median” value (20 μg/kg G-CSF, 20 cycles) of the same molecule?
Answer: 1 days

Question: What about the “Duration of Neutropenia in Neutropenic Cycles, Range” value (20 μg/kg G-CSF, 20 cycles) of the same molecule?
Answer: 1 to 5 days

Question: And the “Nadirs in Neutropenic Cycles, Median” value (20 μg/kg G-CSF, 20 cycles)?
Answer: 191

Question: What about the “Nadirs in Neutropenic Cycles, Range” value (20 μg/kg G-CSF, 20 cycles) of the same molecule?
Answer: 0-493

Question: What about the “Duration of Neutropenia in Neutropenic Cycles, Mean” value (20 μg/kg G-CSF, 20 cycles, ± 0.9 on wrapped line) of the same molecule?
Answer: 1 days

Question: And the “Day of Onset of Neutropenia in Neutropenic Cycles, Mean” value (20 μg/kg G-CSF, 20 cycles, ± 1.1 on wrapped line)?
Answer: 7 days

Question: And the “Nadirs in Neutropenic Cycles, Mean” value (20 μg/kg G-CSF, 20 cycles, ± 155 on wrapped line)?
Answer: 200

Question: What about the “Nadir (all cycles), Median” value (20 μg/kg G-CSF, 42 cycles) of the same molecule?
Answer: 626

Question: And the “Nadir (all cycles), Range” value (20 μg/kg G-CSF, 42 cycles)?
Answer: 0-6536

Question: And the “Nadir (all cycles), Mean” value (20 μg/kg G-CSF, 42 cycles, ± 1430 on wrapped line)?
Answer: 1204

Question: What about the “Patients in whom the G-CSF dose is poorly tolerated” value (in vivo) of the same molecule?
Answer: about 5%

Question: What about the “Patients whose G-CSF doses were modified for bone pain” value (phase II) of the same molecule?
Answer: two

Question: What about the “Bone Pain, G-CSF DR (dose reduction)” value (phase II, 47 patients) of the same molecule?
Answer: 3 (6) No. (%)
